Target: affinity purified BACE1 (BACE1-myc, wild type) (UniProt P56817 22-501, limits assumed)
Assay: cell-based or functional assay

affinity purified BACE1 (BACE1-myc, wild type), sequence (P56817 22-501 limits assumed, form in doubt): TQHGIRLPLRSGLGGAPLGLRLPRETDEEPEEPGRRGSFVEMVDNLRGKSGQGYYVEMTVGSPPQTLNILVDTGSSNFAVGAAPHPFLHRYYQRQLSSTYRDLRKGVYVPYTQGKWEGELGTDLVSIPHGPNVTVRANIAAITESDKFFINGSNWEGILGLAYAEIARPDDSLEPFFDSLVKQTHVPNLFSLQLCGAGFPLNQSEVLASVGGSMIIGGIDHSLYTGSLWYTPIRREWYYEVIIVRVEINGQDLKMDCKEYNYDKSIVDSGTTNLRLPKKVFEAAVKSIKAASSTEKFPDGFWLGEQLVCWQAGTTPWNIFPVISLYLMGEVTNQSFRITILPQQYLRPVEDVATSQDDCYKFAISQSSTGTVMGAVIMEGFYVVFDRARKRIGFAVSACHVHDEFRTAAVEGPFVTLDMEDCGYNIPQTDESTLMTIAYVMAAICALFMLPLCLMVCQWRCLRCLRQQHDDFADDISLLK

B1: ATase2 (acetyltransferase 2) with a myc tag at the C-terminus (enzyme, not shown: small tags and cut ends)
chain: MAPCHIRKYQESDRQWVVGLLSRGMAEHAPATFRQLLKLPRTLILLLGGPLALLLVSGSWLLALVFSISLFPALWFLAKKPWTEYVDMTLCTDMSDITKSYLSERGSCFWVAESEEKVVGMVGALPVDDPTLREKRLQLFHLFVDSEHRRQGIAKALVRTVLQFARDQGYSEVILDTGTIQLSAMALYQSMGFKKTGQSFFCVWARLVALHTVHFIYHLPSSKVGSL
  acetylCoA:lysine acetyltransferase activity recovered from total cell extracts (acceptor: affinity purified BACE1): ~3 fold

B2: ATase1 (acetyltransferase 1) with a myc tag at the C-terminus (enzyme, not shown: small tags and cut ends)
chain: MAPYHIRKYQESDRKSVVGLLSRGMAEHAPATFRRLLKLPRTLILLLGGALALLLVSGSWILALVFSLSLLPALWFLAKKPWTRYVDIALRTDMSDITKSYLSECGSCFWVGESEEKVVGTVGALPVDDPTLREKRLQLFHLSVDNEHRGQGIAKALVRTVLQFARDQGYSEVVLDTSNIQLSAMGLYQSLGFKKTGQSFFHVWARLVDLHTVHFIYHLPSAQAGRL
  acetyltransferase activity recovered from cell extracts (acceptor: affinity purified BACE1): ~2 fold
